# In patent US20070060522A1 (ENSION, published 2007):
# Assays:
# [1] = target: T1, CD54 (ICAM-1) on A375 human melanoma cells (human, UniProt P05362 28-532); assay: inferred from peptide blocking of monocyte/tumor cell adherence
# T1 construct: whole, on cells; also called intercellular adhesion molecule-1
# [2] = target: αMβ2 (Mac-1; CD11b/CD18) on human peripheral blood monocytes (human, UniProt P11215 17-1152; P05107 23-769); assay: inferred from peptide blocking of monocyte/A375 adherence under flow
# Protocol: Pre-treatment of tumor cells with P1 and monocytes with sFn or tumor cells with sFn and monocytes with P2 inhibited adherence to a similar level to that of sFn treatment of both cells (P>0.05 to fibrin; n=5 in each case).
# Peptide Blocking of Cellular Adherence: After fluorescence labeling of each cell type, stock peptides were added to both confluent coverslips and/or 1 milliliter suspensions of monocytes (P1 and P2) and/or sFn solution (P3 and P4) for a final treatment concentration of 4 mM (4 uL added to 1 mL suspension). Cells were treated with peptides for 20 minutes at room temperature, followed directly by washing of cells (by centrifugation and resuspension—monocytes, or perfusion with RPMI 1640 for 10 min—tumor cells). For sFn peptide treatment, peptides remained in the sFn solution during incubation. Monocyte adherence to tumor cells under flow conditions was then performed as described above.
# T1 sequence (P05362 28-532): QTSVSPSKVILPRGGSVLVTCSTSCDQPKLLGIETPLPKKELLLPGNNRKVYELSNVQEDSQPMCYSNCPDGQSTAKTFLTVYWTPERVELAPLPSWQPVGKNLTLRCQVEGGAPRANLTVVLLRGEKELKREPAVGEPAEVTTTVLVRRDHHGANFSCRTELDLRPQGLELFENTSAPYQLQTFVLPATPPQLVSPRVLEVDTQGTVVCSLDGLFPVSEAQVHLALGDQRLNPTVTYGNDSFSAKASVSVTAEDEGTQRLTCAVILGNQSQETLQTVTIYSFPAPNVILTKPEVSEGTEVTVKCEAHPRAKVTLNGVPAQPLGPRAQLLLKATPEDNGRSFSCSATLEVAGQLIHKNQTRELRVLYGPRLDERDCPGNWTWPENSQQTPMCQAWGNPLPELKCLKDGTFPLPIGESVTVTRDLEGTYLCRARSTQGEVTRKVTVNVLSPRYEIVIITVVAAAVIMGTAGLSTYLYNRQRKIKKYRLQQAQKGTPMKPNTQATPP
Binder,binding result [1],binding result [2]
"NNQKIVNLKEKVAQLEA (Synthetic peptide (Sigma-Genosys, 50% purity)) [Peptide 1 (P1), NNQKIVNLKEKVAQLEA]",binds,
"YKSMKKTTMKIIPFNRLTIF (Synthetic peptide) [Peptide 2 (P2), YKSMKKTTMKIIPFNRLTIF]",,binds
